Results reported in patent US12698507B2, “Methods and compositions for conferring and/or enhancing herbicide tolerance using protoporphyrinogen IX oxidase of various cyanobacteria or variant thereof” (FarmHannong Co., Ltd., priority 2019, dated 2026).
Residue numbers refer to the chain shown, from its start. Names and notes keep the numbering of the source.

B1: CyPPO19 V305M + L327T + F360T: variant of CyPPO19 PPO protein (SEQ ID NO: 1) (protein)
chain: MSEVDVAIVGGGLSGLSLAWRLQQSAPQYSVVLLEASDRLGGNITTQTAEGFVWELGPNSFAPTPALLQLIAEVGLQSELIRGDRHLPRYIYWRGQLYPLQPTRPLALATSNLLSPWGKVRAALGALGFVPPYLGSGDESVNSFFRRHLGQEVAERLVAPFVSGVYAGDPQQLSAAAAFRRIAQLEKLGGGLIAGALHLRRQQAPKPKPPTSVQMRPGELGSFKEGLAALPRAIAQQLKAPIHLQTPVQEITPDPKGGYLLRSGEQTWRARSVVLATPAYQTAELVAPFQPAIARVLATIPYPTMACVVLAYPAGLGRSVRPGFGVTIPRSQGIRTLGTIWSSCLFPQRTPAGWQVFTSTIGGATDPDLASLSEEAIVQQVQQDLNRLLDLPAAKARLLGMKVWRRAIPQYMVGYPEQWQQVTHALSQTPGLFLCSNYAEGVALGDRVEHGNRTAAAVAAYLSGGQP
modifications: Synthetic_PPO of Thermosynechococcus elongatus PKUAC-SCTE542 (comprising GenBank No. CP032152.1)
B2: CyPPO19 V305L + I408R + F360L: variant of CyPPO19 PPO protein (SEQ ID NO: 1) (protein)
chain: B1 chain with M305L, T327L, T360L, I408R
modifications: Synthetic_PPO of Thermosynechococcus elongatus PKUAC-SCTE542 (comprising GenBank No. CP032152.1)
B3: CyPPO19 L327T + I408W + F360V: variant of CyPPO19 PPO protein (SEQ ID NO: 1) (protein)
chain: B1 chain with M305V, T360V, I408W
modifications: Synthetic_PPO of Thermosynechococcus elongatus PKUAC-SCTE542 (comprising GenBank No. CP032152.1)
B4: CyPPO19 R89A + V165C + L327T + F360V: variant of CyPPO19 PPO protein (SEQ ID NO: 1) (protein)
chain: B1 chain with R89A, V165C, M305V, T360V
modifications: Synthetic_PPO of Thermosynechococcus elongatus PKUAC-SCTE542 (comprising GenBank No. CP032152.1)
B5: CyPPO19 R89A + V165S + V305M + F360M: variant of CyPPO19 PPO protein (SEQ ID NO: 1) (protein)
chain: B1 chain with R89A, V165S, T327L, T360M
modifications: Synthetic_PPO of Thermosynechococcus elongatus PKUAC-SCTE542 (comprising GenBank No. CP032152.1)
B6: CyPPO19 R89A + V165C + A167C + F360I: variant of CyPPO19 PPO protein (SEQ ID NO: 1) (protein)
chain: B1 chain with R89A, V165C, A167C, M305V, T327L, T360I
modifications: Synthetic_PPO of Thermosynechococcus elongatus PKUAC-SCTE542 (comprising GenBank No. CP032152.1)
B7: CyPPO19 L327T + I408R + F360M: variant of CyPPO19 PPO protein (SEQ ID NO: 1) (protein)
chain: B1 chain with M305V, T360M, I408R
modifications: Synthetic_PPO of Thermosynechococcus elongatus PKUAC-SCTE542 (comprising GenBank No. CP032152.1)
B8: CyPPO19 V305M + I408W + F360I: variant of CyPPO19 PPO protein (SEQ ID NO: 1) (protein)
chain: B1 chain with T327L, T360I, I408W
modifications: Synthetic_PPO of Thermosynechococcus elongatus PKUAC-SCTE542 (comprising GenBank No. CP032152.1)
B9: CyPPO19 V305M + I408W + F360V: variant of CyPPO19 PPO protein (SEQ ID NO: 1) (protein)
chain: B1 chain with T327L, T360V, I408W
modifications: Synthetic_PPO of Thermosynechococcus elongatus PKUAC-SCTE542 (comprising GenBank No. CP032152.1)
B10: CyPPO19 V165C + F360L: variant of CyPPO19 PPO protein (SEQ ID NO: 1) (protein)
chain: B1 chain with V165C, M305V, T327L, T360L
modifications: Synthetic_PPO of Thermosynechococcus elongatus PKUAC-SCTE542 (comprising GenBank No. CP032152.1)

What follows are molecules tested on PPO-deficient BT3 E. coli (ΔPPO) (assay: PPO-inhibiting herbicide tolerance test of PPO variants in E. coli (growth on herbicide-containing LB agar)). Conditions: CyPPO19 variants in BT3 (ΔPPO) E. coli; LB agar with 0 to 2,000 μM herbicide, 37° C., dark, 16-20 hours.
Type: cell-based
Summary of the method: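 PPO-deficient BT3 E. coli expressing each variant from pET303 were diluted to OD600=0.5, then 10-fold serially, and spotted on LB-ampicillin agar with 0 to 2,000 μM herbicide. After 16-20 h at 37° C. in the dark, growth relative to wild type was scored from '−' (equivalent) to '+' per 10-fold resistance, max '+++++'.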

Molecule	tolerance level relative to wild type, Carfentrazone	tolerance level relative to wild type, Flumioxazin	tolerance level relative to wild type, Fomesafen	tolerance level relative to wild type, Oxyfluorfen	tolerance level relative to wild type, Saflufenacil	tolerance level relative to wild type, Sulfentrazone	tolerance level relative to wild type, Tiafenacil
B1	+ (‘+’ per each 10-fold resistance)	+++ (‘+’ per each 10-fold resistance)	++ (‘+’ per each 10-fold resistance)	++ (‘+’ per each 10-fold resistance)	+++ (‘+’ per each 10-fold resistance)	+++ (‘+’ per each 10-fold resistance)	+++ (‘+’ per each 10-fold resistance)
B2	+ (‘+’ per each 10-fold resistance)	++++ (‘+’ per each 10-fold resistance)	+ (‘+’ per each 10-fold resistance)	++ (‘+’ per each 10-fold resistance)	+++++ (until ‘+++++’ as maximal resistance)	++ (‘+’ per each 10-fold resistance)	+++++ (until ‘+++++’ as maximal resistance)
B3	++ (‘+’ per each 10-fold resistance)	+++++ (until ‘+++++’ as maximal resistance)	+++++ (until ‘+++++’ as maximal resistance)	+++++ (until ‘+++++’ as maximal resistance)	+++++ (until ‘+++++’ as maximal resistance)	++++ (‘+’ per each 10-fold resistance)	+++++ (until ‘+++++’ as maximal resistance)
B4	+ (‘+’ per each 10-fold resistance)	++++ (‘+’ per each 10-fold resistance)	+ (‘+’ per each 10-fold resistance)	+ (‘+’ per each 10-fold resistance)	+++ (‘+’ per each 10-fold resistance)	++ (‘+’ per each 10-fold resistance)	+++ (‘+’ per each 10-fold resistance)
B5	+ (‘+’ per each 10-fold resistance)	+++++ (until ‘+++++’ as maximal resistance)	+++ (‘+’ per each 10-fold resistance)	++ (‘+’ per each 10-fold resistance)	+++++ (until ‘+++++’ as maximal resistance)	+++ (‘+’ per each 10-fold resistance)	+++++ (until ‘+++++’ as maximal resistance)
B6	+ (‘+’ per each 10-fold resistance)	+++ (‘+’ per each 10-fold resistance)	++ (‘+’ per each 10-fold resistance)	+ (‘+’ per each 10-fold resistance)	+++ (‘+’ per each 10-fold resistance)	++ (‘+’ per each 10-fold resistance)	+++ (‘+’ per each 10-fold resistance)
B7	+ (‘+’ per each 10-fold resistance)	+++++ (until ‘+++++’ as maximal resistance)	++ (‘+’ per each 10-fold resistance)	+++ (‘+’ per each 10-fold resistance)	+++ (‘+’ per each 10-fold resistance)	+ (‘+’ per each 10-fold resistance)	+++++ (until ‘+++++’ as maximal resistance)
B8	+ (‘+’ per each 10-fold resistance)	+++++ (until ‘+++++’ as maximal resistance)	+++ (‘+’ per each 10-fold resistance)	+++ (‘+’ per each 10-fold resistance)	+++++ (until ‘+++++’ as maximal resistance)	+++ (‘+’ per each 10-fold resistance)	+++++ (until ‘+++++’ as maximal resistance)
B9	+ (‘+’ per each 10-fold resistance)	+++++ (until ‘+++++’ as maximal resistance)	+++ (‘+’ per each 10-fold resistance)	+++ (‘+’ per each 10-fold resistance)	+++++ (until ‘+++++’ as maximal resistance)	++++ (‘+’ per each 10-fold resistance)	+++++ (until ‘+++++’ as maximal resistance)
B10	+ (‘+’ per each 10-fold resistance)	++++ (‘+’ per each 10-fold resistance)	+++ (‘+’ per each 10-fold resistance)	++ (‘+’ per each 10-fold resistance)	++++ (‘+’ per each 10-fold resistance)	++++ (‘+’ per each 10-fold resistance)	++++ (‘+’ per each 10-fold resistance)
